B1: SC17.121 (antibody, V domains shown)
VH: EVQLQQSGPELMKPGASVKMSCKASGYTFTDHNIHWVKQHQGKSLEWIGEINPNTGGTGYNQKFQGKATMTVDKSSSTAYMELRSLTSEDSAVYYCVRGLYFFDYWGQGTTLTVSS
VL: QIVLTQSPAIMSASPGEKVTMTCSASSSVSYMHWYQQKSGTSPKRWIYDTSKLASGVPARFSGSGSGTSYSLTISSMETEDAATYYCQQWSNTPPTFGSVTKLEIK
notes: murine mAb
B2: SC17.191 (antibody, V domains shown)
VH: EVQLQQSGPELMKPGASVKMSCKASGYTFTDYNMHWVKQNQGKSLEWIGEINPNTGGTGYNQKFKDKATLTVDKSSSTAYMELRSLTSEDSAVYYCARIPSLRRYYFDYWGQGTTLTVSS
VL: QIVLTQSPAIMSASPGEKVTMTCSASSSVSYMHWYQQKSGTSPKRWIYDTSKLASGVPARFTGSGSGTSYSLTISSMEAEDAATYYCQQWSSSPPTFGAGTKLELK
notes: murine mAb
B3: SC17.102 (antibody, V domains shown)
VH: EVQLQQSGPELMKPGASVKMSCKASGDTFTDYNIHWVKQNQGKSLEWIGEVNPNIGGIGYNQKFKGKATLTVDKSSSTAYMELRSLTSEDSAVYYCAMGRWYFDVWGAGTTVTVSS
VL: QIVLTQSPAIMSASPGEKVTMTCSASSSVSYMHWYQQKSGTSPKRWIYDTSKLASGVPPRFSGRGSGTSYSLTISSMEAEDAATYYCQHWSSNPPTFGAGTKLEMK
notes: murine mAb
B4: SC17.151 (antibody, V domains shown)
VH: EVQLQQSGTVLARPGASVKMSCKASGYTFTSYWMHWVKQRPGQGLEWIGAIYPGKNDTTYNQKFKGKAKLTAVTSASTLYMELSSLTNEDSAVYYCTRSGKGYFAYWGQGTLVTVSA
VL: DIVLTQFPASLAVSLGQRATIPCRASESVDSYGNSFMHWFQQKPGQPPKLLIYRASNLESEIPARFSGSGSGTDFTLTINPVEADDVATYYCQQSHEDPYTFGGGTKMEIK
notes: murine mAb
B5: SC17.120 (antibody, V domains shown)
VH: EVQLEQSGTVLARPGASVKMSCKASGYTFTSYWMHWVKQRPGQGLEWIGAFYPGNSGTYYNQKFKDKAKLTAVTSASTAYMELSSLTNEDSAVYYCSRSGSGRFAYWGQGTLVTVSA
VL: DIVLTQSPASLAVSLGQRATISCRASESVDSYGNSFMHWYQQKPGQPPKVLIYRASNLESGIPARFSGSGSRTDFTLTINPVEDEDVATYYCQQSNEDPYTFGGGTKLEIK
notes: murine mAb
B6: SC17.199 (antibody, V domains shown)
VH: EVQLQQSGTVLARPGASVRMSCKASGYTFTSYWMHWVKQRPGQGLEWIGAIYPGNSDTSYNHKFKGKAKLTAVTSASTAYMELSSLTNEDSAVYYCTRSGTGWFAYWGQGTLVTVS
VL: DIVLTQSPASLAVSLGQRATISCRASESVDSYGNSFMHWYQQKPGQPPKPLIYRASNLESGIPARFSGSGSRTDFTLTINPVEADDVATYYCQQSNEDPYTFGGGTKLEIK
notes: murine mAb
B7: SC17.9 (antibody, V domains shown)
VH: QVQLQQPGAEIVRPGASVKLSCKASGYTFTDYWMNWVKQRPGQGLEWIGAIDPSDSYTSYNPKFKGKATLTVDTSSSSAYMQLSSLTSEDSAVYFCARRGTPGKPLVYWGQGTLVTVSA
VL: DIVMSQSPSSLAVSVGEKVTMSCKSSQSLLYSSNQKNYLAWYQQKPGQSPKLLIYWASTRESGVPDRFTGSGSGTDFTLTISSVKAEDLAVYFCQQYYNYPYTFGGGTKLK
notes: murine mAb
B8: SC17.193 (antibody, V domains shown)
VH: QVTLKESGPGILQPSQTLSLTCSFSGFSLITYGIGVGWIRQPSGKGLEWLAHIWWNDNKYYNTALKSRLTISKDTSNNQVFLKIANVDTADTATYYCARMVYYDYDGGFAYWGQGTLVTVSA
VL: DLVLTQSPASLAVSLGQRATISCRASESVSTSGYSYMHWYQQKPGQPPKLLIYLASNLESGVPARFSGSGSGTDFTLNIHPVEEEDATTYYCQHSRELPYTFGGGTKLEIK
notes: murine mAb
B9: SC17.156 (antibody, V domains shown)
VH: QVTLKESGPGILQPSQTLSLTCSFSGFSLSTSGMGVSWIRKTSGKGLEWLAHIFWDDDKWYNPSLKSRLTISKATSSNQVFLILTSVDTADTATYYCATFYGLYFAYWGQGTTLTVSS
VL: DVVMTQSPLSLPVSLGDQASISCRSSQSIVHSNGNTYLEWYLQKPGQSPKLLIYKVSNRFSGVPDRFSGSGSGTDFTLKISRVEAEDLGVYYCFQGSHVPPTFGGGTKLEIK
notes: murine mAb
B10: SC17.114 (antibody, V domains shown)
VH: EVQLQQSGPEMVKPGASVKISCKASGYTFTDYYMHWVKQSHGKSLEWIGRVNTNNGGTSYDQKFEGKATLTVDKSSSTAYMELNSLTSEDSAVYYCVIPAWFAYWGQGTLVTVSA
VL: DVVMTQSPLSLPVSLGDQASISCRSSQSLVHSNGNTYLHWYLQKPGQSPKLLIYKVSSRFSGVPDRFSGSGSGTDFTLKISRVEAEDLGVYFCSQSTHVPFTFGSGTKLEIK
notes: murine mAb
B11: SC17.56 (antibody, V domains shown)
VL: DIVMSQSPSSLAVSVGEKVTMSCKSSQSLLYSSNQKNYLAWYQQKPGQSPKLLIYWASTRESGVPDRFTGSGSGTDFTLTISSVKAEDLAVYFCQQYYNYPYTFGGGTKLEIK
V domain: QIQLVQSGPELKKPGETVKISCKASGYTFTNYGMNWVKQAPGKGLKWMAWINTYTGEPTYADDFKGRFAFSLETSASTASLQIINLKNEDTATYFCARIGDSSPSDYWGQGTTLTV
notes: murine mAb
B12: SC17.93 (antibody, V domains shown)
VH: QVQLQQPGAELVKPGASVMLSCKASGYTFTSYWVHWVKQRPGQGLEWIGVINPRNGRNNYNEKFKTKATLTVDKSSSTAYMQLSSPTSEDSAVYYCAREDYDGGDYAMDYWGQGTSVTVSS
VL: DIVMSQSPSSLAVSVGEKVTMTCKSSQSLLYSSNQKNYLAWYQQKPGQSPKLLIYWASTRESGVPDRFIGSGSGTDFTLTISSVKAEDLAIYYCQQYYRYPLTFGAGTKLELK
notes: murine mAb
B13: SC17.81 (antibody, V domains shown)
VH: EVQLQQSGAELVKPGASVKLSCTASGFNINDTYYHWLKQRPEQGLEWIGRIDPANVNTKYDPKFQGKATLTADTSSNTAYLQLSSLTSEDTAVYYCGRGNAYWGQGTLVTVSA
VL: DIVMSQSPSSLTVSVGEKVTLSCKSSQSLLYSTNQKIYLAWYQQKPGQSPKLLIYWASTRESGVPDRFTGSGSGTDFTLAISNVKAEDLAVYYCQQYYSYPYTFGGGTKLEIK
notes: murine mAb

Columns and labels:
[1] = target: T1, SEZ6 Sushi Domain 4 (amino acids 750-813) on yeast (human, UniProt Q53EL9 769-832); assay: yeast display, flow cytometry;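 note: antibody binding to individual SEZ6 domains displayed on yeast, measured by flow cytometry, antibody at 50 nM purified or hybridoma supernatant diluted 1:2, 90 min on ice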
T1 construct: yeast display

[2] = target: T2, SEZ6 N1 (amino acids 1-70) on yeast (human, UniProt Q53EL9 20-89); assay: yeast display, flow cytometry;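 note: antibody binding to individual SEZ6 domains displayed on yeast, measured by flow cytometry, antibody at 50 nM purified or hybridoma supernatant diluted 1:2, 90 min on ice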
T2 construct: yeast display
T2 sequence: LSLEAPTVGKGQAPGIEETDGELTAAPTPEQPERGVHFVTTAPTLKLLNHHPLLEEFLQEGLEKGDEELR

| Binder | binding result [1] | binding result [2] |
| --- | --- | --- |
| B1 | binds | – |
| B2 | binds | – |
| B3 | binds | – |
| B4 | – | binds |
| B5 | – | binds |
| B6 | – | binds |
| B7 | – | binds |
| B8 | binds | – |
| B9 | binds | – |
| B10 | – | binds |
| B11 | – | binds |
| B12 | binds | – |
| B13 | – | binds |
